Experimental data from patent US20250382353A1 (LA JOLLA INSTITUTE FOR IMMUNOLOGY, published 2025).

Tests used:
Test in all cases: cell-based or functional assay
rVSV-G614 spike = rVSV-G614 spike (SARS-CoV-2, UniProt P0DTC2 14-1252)
rVSV-Delta spike = rVSV-Delta spike (SARS-CoV-2 Delta, UniProt P0DTC2 14-1252)
rVSV-Omicron spike = rVSV-Omicron spike (SARS-CoV-2 Omicron, UniProt P0DTC2 14-1252)

Binder	IC50 (ng/mL), neutralization of rVSV-G614 pseudovirions on Vero cells (rVSV-G614 spike) [ng/mL]	IC50 (ng/mL), neutralization of rVSV-Delta pseudovirions on Vero cells (rVSV-Delta spike) [ng/mL]	IC50 (ng/mL), neutralization of rVSV-Omicron pseudovirions on Vero cells (rVSV-Omicron spike) [ng/mL]
LJI_491-39 (2E6) (antibody, V domains shown) VH: EVQLVQSGGGLVQPGGSLKLSCAASGFTFSGSAMHWVRQASGKGLEWVGHIRSKANSYATAYAASKGRFTISRDDSKNTAYLQMNSLKTEDTAVYYCTREDIVGVPVAKDWFDPWGQGTLVTVS VL: DIQMTQSPSSLFASVGDRVTITCRASQSISSYLNWYQQKPGKAPKLLIYAASSLQSGVPSRFSGSGFGTDFTLTISSLQPEDFATYYCQQSYSTLSITFGQGTRLEIKR	15	324	88
LJI_491-27 (1C3) (antibody, V domains shown) VH: QVQLLESGGGLVQPGRSLRLSCAASGFTFDDYAMHWVRQPPGKGLEWVSGSSWNSGSVVYADSVKGRFTISRDSAKNSLHLQMNSLRVEDTALYYCAKAVDPTRGSYSPDYGFDIWGQGTMVTVS VL: not shown	8	12	3
